Measured values from patent publication US20020082410.

Biological target: Ipf1 (RSV-Ipf1 expression vector) (Mus musculus) (UniProt P52946)
Assay: cell_activity
Settings: betaTC1 cells with RSV-Ipf1; in CHO cells Ipf1 raised activity to the betaTC1 level (about 3-fold over CHO)

## 5x P1 site linked to beta-globin TATA box reporter
  activity: 2 fold
